The record followed here is PMC8490722 (Frontiers in Immunology, 2021).

The target in this test is T1, SARS-CoV S1 subunit (SARS-CoV WH20 (AAX16192.1), UniProt Q5DIC5).
T1 construct: source: bought: Sino Biological
The experiment in a line: western blotting. The note with it: one partner purified. In general terms: Immunoblotting shows a protein as a band on a membrane.

B1: mAb 12C10 (antibody, V domains shown)
VH: EVKLQESGGGLVKPGGSLKLSCAASGFTFSNYSMSWVRQTPEKRLEWVATISNGGGYIYYLDSVKGRFTISRDNAKNTLYLQMSSLRSEDTAMYYCGRPRPEKEFISTSTAMDHWGQGTTVT
VL: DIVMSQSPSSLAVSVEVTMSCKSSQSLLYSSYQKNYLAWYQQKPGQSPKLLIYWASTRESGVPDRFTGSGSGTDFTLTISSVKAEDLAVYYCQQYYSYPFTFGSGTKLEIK
notes: also called anti-R405; source: mouse hybridoma; supernatants or ascites fluid
On to B1, for which the binding result is “binds”.
